The data set deals with the molecule itself. In words: cryo-EM structure.

B1: mouse TRPC5 with a 210-amino-acid C-terminal truncation, with N-terminal 3xFlag tag and MBP (recombinant plasmid FMC5) (domain or fragment, UniProt Q9QX29 1-765, looked up)
chain: MAQLYYKKVNYSPYRDRIPLQIVRAETELSAEEKAFLSAVEKGDYATVKQALQEAEIYYNVNINCMDPLGRSALLIAIENENLEIMELLLNHSVYVGDALLYAIRKEVVGAVELLLSYRKPSGEKQVPTLMMDTQFSEFTPDITPIMLAAHTNNYEIIKLLVQKRVTIPRPHQIRCNCVECVSSSEVDSLRHSRSRLNIYKALASPSLIALSSEDPILTAFRLGWELKELSKVENEFKAEYEELSQQCKLFAKDLLDQARSSRELEIILNHRDDHSEELDPQKYHDLAKLKVAIKYHQKEFVAQPNCQQLLATLWYDGFPGWRRKHWVVKLLTCMTIGFLFPMLSIAYLISPRSNLGLFIKKPFIKFICHTASYLTFLFMLLLASQHIVRTDLHVQGPPPTVVEWMILPWVLGFIWGEIKEMWDGGFTEYIHDWWNLMDFAMNSLYLATISLKIVAYVKYNGSRPREEWEMWHPTLIAEALFAISNILSSLRLISLFTANSHLGPLQISLGRMLLDILKFLFIYCLVLLAFANGLNQLYFYYETRAIDEPNNCKGIRCEKQNNAFSTLFETLQSLFWSVFGLLNLYVTNVKARHEFTEFVGATMFGTYNVISLVVLLNMLIAMMNNSYQLIADHADIEWKFARTKLWMSYFDEGGTLPPPFNIIPSPKSFLYLGNWFNNTFCPKRDPDGRRRRHNLRSFTERHADSLIQNQHYQEVIRNLVKRYVAAMIRNSKTNEGLTEENFKELKQDISSFRYEVLDLLGNRK
Take B1: the binding result was “binds”.

For the origin of these results see article doi:10.1101/2024.11.03.621705 (bioRxiv, 2024).
